Reference: patent publication US8415106B2, “Cell-based screen for agents useful for reducing neuronal demyelination or promoting neuronal remyelination” (Myelin Repair Foundation, Inc., priority 2005, dated 2013)

Experiments:
[1] = test system: ER stress markers (BIP, CHOP, p-eIF-2α); experiment: ER stress markers in the corpus callosum during remyelination (real time PCR, Western blot); type: in vivo, mice
Protocol: Repression of remyelination by IFN-γ is associated with ER stress. […] To determine whether IFN-γ interferes with endoplasmic reticulum (ER) function in remyelinating oligodendrocytes, the expression of ER stress markers was monitored in the corpus callosum of mice expressing IFN-γ. The study was performed using the transgenic mice described in Example 1.
The level of mRNA encoding ER stress associated genes binding immunoglobulin protein/78 KDa glucose regulated protein (BIP/GRP78) and the CAATT enhancer-binding protein homologous protein/growth and DNA damage protein 153 (CHOP/GADD153), was determined using real time PCR, as described in Example 1 in the corpus callosum of the cuprizone treated mice of Example 1. The probes, sense and antisense primers that were used were: […]
The level of phosphorylated eIF-2α, which inhibits nucleotide exchange on the eIF-2 complex and attenuates most protein synthesis, was analyzed by Western blot, and the expression was colocalized by immunostaining CC1 antibodies as described above. Western blot analysis was performed as follows. The corpus callosum from 3 mice was rinsed in ice cold phosphate-buffered saline (PBS) and pooled, and immediately homogenized in 5 volumes of Triton X-100 buffer (20 mM HEPES pH 7.5, 150 mM NaCl, 1% Triton X-100, 10% glycerol, 1 mM EDTA, 10 mM tetrasodium pyrophosphate, 100 mM NaF, 17.5 mM β-glycerophosphate, 10 mM phenylmethylsulfonyl fluoride, 15 μg/ml aprotonin, and 6 μg/ml pepstatin A) using a motorized homogenizer. After incubation on ice for 15 min, the extracts were cleared by centrifugation at 14,000 rpm twice for 30 min each. The protein content of each extract was determined by protein assay (Bio-Rad). The extracts (40 μg) were separated by sodium dodecyl sulfate-polyacrylamide gel electrophoresis and transferred to nitrocellulose. […] The following primary antibodies were used: anti-eIF-2α (1:500; Santa Cruz, Santa Cruz, Calif.), anti-p-eIF-2α (1:1000, Cell signaling Technology), anti-CHOP (1:500; Santa Cruz) and anti-actin (1:1000; Sigma, St Louis, Mo.).

mice with EAE = experiment: MOG35-55-induced EAE, CNS delivery of INF-γ at the recovery stage (doxycycline withdrawn at PID7); type: in vivo; details: DOX− mice
Text: Double transgenic mice that allow for temporally regulated delivery of INF-γ to the CNS (Lin et al., J Neurosci 24:10074-10083 (2004)) were used to assess the role of INF-γ in the pathogenesis of EAE. GFAP/tTA; TRE/IFN-γ double transgenic mice, as described in Example 1 were used to determine the effect of INF-γ on the demyelination caused by EAE. All mice were fed doxycycline from the day of conception to repress the expression of INF-γ, and were immunized with myelin oligodendrocyte protein (MOG35-55) to induce EAE. At day 7 postimmunization (PID7), doxycycline was withdrawn from the experimental group (PID7 DOX−).
The level of INF-γ was determined in the control (DOX+) and the PID7 DOX− mice using an ELISA immunoassay as described in Example 1, and the severity of the disease was assessed as a function of a clinical score. Clinical severity scores were recorded daily according to a 0-5 point scale, where 0=healthy, 1=flaccid tail, 2=ataxia and/or paresis of hind limbs, 3=paralysis of hind limbs and/or paresis of forelimbs, 4=tetraparalysis, and 5=moribund or dead.
The spinal cord from DOX+ and DOX− animals with EAE was immunostained for MBP, and the remyelination of axons was evaluated. The number of oligodendrocytes was determined in the spine from DOX+ and DOX− mice as the number of CC1 positive cells. Axonal damage was evaluated by immunostaining of non-phosphorylated neurofilament-H. Antibodies to non-phosphorylated neurofilament-H Were SMI32 diluted to 1:1000 and obtained from Sternberger Monoclonals.

[2] = test system: oligodendrocytes and myelin in the corpus callosum; experiment: Cuprizone remyelination in double transgenic mice on PERK+/+ or PERK+/− background; type: in vivo; details: for remyelinated axons: 9 weeks
Text: The involvement of the ER stress response in the reduction caused by IFN-γ to remyelinate lesions was examined in transgenic mice that were generated to be heterozygous for a loss of function mutation in pancreatic ER kinase (PERK) (Harding, et al., (2001) Mol Cell 7:1153-1163), and to be temporally regulated for expressing INF-γ in the CNS. TRE/IFN-γ mice were first crossed with PERK+/− mice (Harding, et al. (2001) Mol. Cell 7: 1153-1163) on the C57BL/6 background to generate mice the carry the PERK mutation, and the resulting progeny were crossed to GFAP/tTA mice to obtain transgenic mice that were heterozygous for the PERK mutation. The effect of PERK on remyelination in the presence or absence of INF-γ was evaluated as evaluated as a function of the level of myelination of oligodendrocytes in remyelinating lesions and the number of oligodendrocytes present in the remyelinating lesion.
The extent of remyelination was assessed as described in the previous examples in the corpus callosum of PERK+/+ and PERK+/− mice that were made to express INF-γ (DOX−PERK+/+ and DOX− PERK+/−), and in mice in which the expression of INF-γ was repressed (DOX+PERK+/+ and DOX+PERK+/−). Remyelination was determined by electron microscopy, and was related to the number of CC1 positive oligodendrocytes and the level of caspase-3 expression in the corpus callosum of all animals. The level of caspase-3 was determined by immunohistochemical methods using anti capsase antibody (active-casoase-3 antibody, 1:50; Cel Signaling Technology) and according to the method described in Example 1. Demyelination was induced in six-week-old GFAP/tTA; TRE/IFN-γ double transgenic mice on a PERK+/− background that had been maintained on doxycycline, by simultaneously treating the mice with 0.2% cuprizone and releasing them from doxycycline (DOX−PERK+/−). Remyelination was allowed to occur by withdrawing cuprizone at week 6.

[3] = DOX− compared to control DOX+ mice

B1: IFN-γ: pleotropic cytokine secreted by activated T lymphocytes and natural killer cells; recombinant rat IFN-γ added to cultures or transgenically expressed in mouse CNS (protein, UniProt P01581 23-156, looked up)
Interferon gamma: QGTLIESLESLKNYFNSSSMDAMEGKSLLLDIWRNWQKDGNTKILESQIISFYLRLFEVLKDNQAISNNISVIESHLITNFFSNSKAKKDAFMSIAKFEVNNPQIQHKAVNELIRVIHQLSPESSLRKRKRSRC
- level of mRNA for BIP [1, 3]: approximately 2 fold
- level of mRNA for CHOP [1, 3]: approximately 2 fold
- level of phosphorylated eIF-2α (Western blot) ([1]; DOX− double transgenic mice): approximately 1.8 fold
- level of the CHOP protein (Western blot) ([1]; DOX− double transgenic mice): approximately 1.7 fold
- mean maximum clinical score (mice with EAE; PID17, 0-5 point scale, DOX+ 2.66±0.80): 2.69±0.69
- mice that developed hind limb paralysis (mice with EAE; PID17, control twenty of 25): 24 of 30
- mice with hind limb paralysis that continued to suffer from the paralysis (mice with EAE; PID50): 12/24
- clinical score (mice with EAE; PID 50, control DOX+ less than 1): ~2
- remyelinated axons ([2]; DOX−PERK+/+ mice, DOX+ 54.0%±4.3%): 31.1%±7.6%
- number of CC1 positive oligodendrocytes ([2]; DOX−PERK+/+ mice, week 9, DOX+PERK+/+ 283.2±27.7): 123.2±27.5 /0.04 mm^2
- remyelinated axons ([2]; DOX−PERK+/− mice, 3 weeks after cuprizone removal): 15.6%±7.6%
- number of oligodendrocytes positive for caspase-3, DOX−PERK+/− versus DOX−PERK+/+ ([2]; corpus callosum, week 9): 2.3 times
